The series is described as follows: yeast display, Sf9 membrane polyspecificity reagent, FACS + sequencing; frameworks hold sequencing errors. The gist of the method: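 In a synthetic yeast display library (Saccharomyces cerevisiae BJ5465), nanobody expression was induced with galactose for 36–48 hours. FACS gates were set low and high (top ~1%) using anti-HA fluorescence for expression and streptavidin fluorescence for binding of the Sf9 membrane reagent. Each polyreactivity label is drawn from the gate of origin.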
With “QVQLVESGGGLVQAGGSLRLSCAASGFTFWYNAMGWYRQAPGKERELVAAISKSGGSTYYADSVKGRFTISRDNAKNTVYLQMNILKPEDTAVYYCAARLPYNRYNYWGQGTQVTVSS”, the “polyreactivity (PSR sort gate)” value is reported as “high polyreactivity”.
For “QVQLVESGGGLVQAGGSLRLSCAASGFTFWYYAMGWYRQAPGKERELVADISTRGGSTYYADSVKGRFTISRDNAKNTVYLQMNSLKPEDTAVYYCAAKYARNLAGDDPYDYWGQGTQVTVSS” the value was “high polyreactivity”.
“QVQLVESGGGLVQAGGSLRLSCAASGFTFWYYAMGWYRQAPGKERELVARITSRGADTYADSVKGRFTISRDNAKNTVYLQMNSLKPEDTAVYDCNADIISVSVYYFIVEYDYWGQGTQVTVSS”: the “polyreactivity (PSR sort gate)” value is listed as “low polyreactivity”.
For “QVQLVESGGGLVQAGGSLRLSCAASGFTFWYYAMGWYRQAPGKERELVATITSGGRTSYADSVKGRFTISRDNAKNTVYLQMNSLKPEDTAVYYCAAVARYTPGYGYWGQGTQVTVSS” the value was “high polyreactivity”.
With “QVQLVESGGGLVQAGGSLRLSCAASGFTFYAYAMGWYRQAPGKERELVAAISRTGGRTYYADSVKGRFTISRDNAKNTVYLQMNSLKPEDTAVYYCNRAGLHSTGYDYWGQGTQVTVSS” the entry was “high polyreactivity”.
Take “QVQLVESGGGLVQAGGSLRLSCAASGFTFYAYAMGWYRQAPGKERELVAAITWSGGRTYYADSVKGRFTISRDNAKNTVYLQMNSLKPEDTAVYYCAKRYWGQARYHTGHDYWGQGTQVTVSS”: the “polyreactivity (PSR sort gate)” value is recorded as “high polyreactivity”.
With “QVQLVESGGGLVQAGGSLRLSCAASGFTFYDKAMGWNRQAPGKERELVAAINCRSGSTYYADSVKGRFTISRDTAKNTVYLQMNSLKPEDTAVYYCASGLVFHYYAPKSYYLRYDYWGQGTQVTVSS” the entry was “low polyreactivity”.
For “QVQLVESGGGLVQAGGSLRLSCAASGFTFYDYVMGWYRQAPGKERELVASISARTGSTYYADSVKGRFTISRDNAKNTVYLQMNSLQPEDTAVYYCAADDGQYYRTEYDYWGQGTQVTVSS” the value was “low polyreactivity”.
With “QVQLVESGGGLVQAGGSLRLSCAASGFTFYGNAMGWYRQAPGKERELVASISTYYADSVKGRFTISRDNAKNTVYLQMNSLKPEDTAVYYCAATHYDRTFYVIYDYWGQGTQVTVSS” the entry was “low polyreactivity”; with “QVQLVESGGGLVQAGGSLRLSCAASGFTFYGYAMGRYRQAPGKERELVAAITFRGDRTYYADSVKGRFTISRDNAKNTVYLQMNSLKPEDTAVYYCAAERPSGWYSDLSLYIGRRGYWGQGTQVTVSS”, “low polyreactivity”; with “QVQLVESGGGLVQAGGSLRLSCAASGFTFYGYGMGWYRQAPGKERELVAGISSGGGSTFYADSVKGRFTISRDNAKNTVYLQMNSLKPEDTAVYYCAALHYGGYFSYYPYYYWGQGTQVTVSS”, “low polyreactivity”.
As for “QVQLVESGGGLVQAGGSLRLSCAASGFTFYHNAMGWYRQAPGKERELVAAISGGGDSTYYADSVKGRFTISRDNAKNTVYLQMNSLKPEDTAVYYCATRRYPEVVNGEYGYWGQGTQVTVSS”, the “polyreactivity (PSR sort gate)” value is given as “low polyreactivity”.
Consider “QVQLVESGGGLVQAGGSLRLSCAASGFTFYHYAMGWYRPAPGKERELVAAITWSGGDTYYADSEKGRFTSSRDNAKNTVYLQMNSLKPEDTAVYYCNADDPPGAPYYDSFDYRGDYWGQGTQRTVSS”, for which the “polyreactivity (PSR sort gate)” value is reported as “low polyreactivity”.
For “QVQLVESGGGLVQAGGSLRLSCAASGFTFYHYAMGWYRQAPGTERELVASITRSGASTYYADSVKGRFTSSRDNAKNTVYLQMNSLKPEDTAVYYCNKVRYTSSIWTYYYWGQGTQVTVSS” the value was “high polyreactivity”.
Consider “QVQLVESGGGLVQAGGSLRLSCAASGFTFYKNTMGWYRQAPGKERELVAAISSSGSSTYYADSVKGRFTISRDNAKNTVYLQMNSLKPEDTAVYYCAAGRFAYHDDYWGQGTQVTVSS”, for which the “polyreactivity (PSR sort gate)” value is recorded as “high polyreactivity”.
For “QVQLVESGGGLVQAGGSLRLSCAASGFTFYKNTMGWYRQAPGKVRELVAAISSSGSSTYYADSVKGRFTISRDNAKNTVYLQMNSLKPEDTAVYYCAAGRFAYHDDYWGQGTHVTVSS” the value was “high polyreactivity”.
With “QVQLVESGGGLVQAGGSLRLSCAASGFTFYKYAMGGYRQEPGKERELVATITISGITNYADSVKGRFTISRDNAKNTVYLQMNSLKPEDTAVYYCATVGPWPGEYDYWGQGTQVTVSS” the entry was “low polyreactivity”.
With “QVQLVESGGGLVQAGGSLRLSCAASGFTFYKYTMGWYRQAPGKERELVAAISARGGSTYYADSVKGRFTISRDNAKNTVYLQMNSLKPEDTAVYYCAADYWRTYVLGYDYWGQGTQVTVSS” the entry was “high polyreactivity”.
For the sequence “QVQLVESGGGLVQAGGSLRLSCAASGFTFYKYVMGWYRQAPGKERELVAAITTSGGSTYYADSVKGRFTISRDNAKNTVYLQMNSLKPEDTAVYYCNARSLHTSEGDYWGQGTQVTVSS”, the “polyreactivity (PSR sort gate)” value is “low polyreactivity”.
For “QVQLVESGGGLVQAGGSLRLSCAASGFTFYLYALGWYRQAPGKERELVAAITYSGGSTYYADSVKGRFTISRDNAKNTVYLQMNSLKPEDTAVYYCAADARGKVYWGQGTQVTVSS” the value was “high polyreactivity”; for “QVQLVESGGGLVQAGGSLRLSCAASGFTFYLYAMGWYRQAPGKEREFVASISYRGTSTYYADSVKGRCTISRDNAKNTVYLQMNSLKPEDTAFYYCAARPSYYRTGYGYWGQGTQVTVSS”, “high polyreactivity”; for “QVQLVESGGGLVQAGGSLRLSCAASGFTFYLYSMGWYRQAPGKERELVATITSDGGTNYADSVKGRFSISRDNAKNTVYLQMNSLTPEDTAVYYCNAASRRGSRKQAKYDYWGQGTQVTVSA”, “low polyreactivity”.
For “QVQLVESGGGLVQAGGSLRLSCAASGFTFYPNTMGWYRQAPGKERELVAAISSSGGRTYYSDSVKGRFTISRDNAKNTVYLQMNSLKPEDTAVYYCNAAKWLTSGGLDYWGIGTQVTVSS” the value was “high polyreactivity”; for “QVQLVESGGGLVQAGGSLRLSCAASGFTFYPYAMGWYRQAPGKERELVAAIRISGGSTYYADSVKGRFTISRDTAKNTVYLQMNSLKPEDTAVYYCAAKYPYYSSYAYGYWGQGTQVTVSS”, “high polyreactivity”; for “QVQLVESGGGLVQAGGSLRLSCAASGFTFYPYAMGWYRQAPGKERELVAGITRGGSTNYADSVKGRFTISRDNAKNTVYLQMNSLKPEDTAVYYCAAKYGPYFRRLDYWGQGTQVTVSS”, “high polyreactivity”.
With “QVQLVESGGGLVQAGGSLRLSCAASGFTFYPYAMGWYRQAPGKERELVASISWSGGSTYYADSVKGRFTISRDNAKNTVYFQMNSLKPEDTAVYYCNAEYWLPYYPDYDFWGQGTQVTVSS” the entry was “low polyreactivity”; with “QVQLVESGGGLVQAGGSLRLSCAASGFTFYPYAMGWYRQAPGKERELVATISSGGTTNYADSVKGRFTISRDNAKNTVYLQMNSLKPEDTAVYYCAADYIRLFGPFDYWGQGTQVTVSS”, “low polyreactivity”; with “QVQLVESGGGLVQAGGSLRLSCAASGFTFYPYARGWYRQAPGKERELVAAISNGDSTHYADSVKGRFTISRDNAKNTVYLQMNSLKPQDTAVYYCNAYTRYPFYFVTSKYDYWGQGNQVTVSS”, “low polyreactivity”.
“QVQLVESGGGLVQAGGSLRLSCAASGFTFYPYTMGWYRQAPGKERELVAAISSSGGSTYYADSVKGRFTISRDNAMNTVYLQMNSLKPEDTAVYYCATRSWGPYYYGYNHWGQGSQVTVSS”: the “polyreactivity (PSR sort gate)” value is recorded as “high polyreactivity”.
For “QVQLVESGGGLVQAGGSLRLSCAASGFTFYQYAMGWYRQAPGKERELVAAISSSGTSTYYADSVKGRFTISRDNAKNTVYLQMNSLKPEDTAVYYCAARRYKLFYWGQGTQVTVSS” the value was “low polyreactivity”; for “QVQLVESGGGLVQAGGSLRLSCAASGFTFYRNAMGWYRQAPGKEWELVAGITRSGGSTYYADSVKGRFTISRDNAKNTVYLQMNSLKPEDTAVYYCNKAYGGDKYSGTYDYWGQGTQVTVSS”, “high polyreactivity”.
With “QVQLVESGGGLVQAGGSLRLSCAASGFTFYRNAMGWYRQAPRKERDLVAAISDSGGRTYYADSVKGRFTISRDNAMNTVYLQMNSLIPEDTAVYYCAADTVIWWVEYEYWGQGTQVTVSS” the entry was “high polyreactivity”; with “QVQLVESGGGLVQAGGSLRLSCAASGFTFYRYAMGWYRQAPGKERELVAAITGGGSTYYADSVKGRFTISRDNAKNTVYLQMNSLKPEDTAVYYCNADIRAYTVLTGGYIYDYWGQGTQVTVSS”, “high polyreactivity”; with “QVQLVESGGGLVQAGGSLRLSCAASGFTFYRYAMGWYRQAPGKERELVAAITKSSGRTYYADSVKGRFTISRDNAQITVYLQINSLKPEDTAVYYCNAYYVALPPNMDYWGQGTQVTVSS”, “high polyreactivity”.
With “QVQLVESGGGLVQAGGSLRLSCAASGFTFYRYAMGWYRQAPGKERELVAAITWSGGSTYYADSVKGRFTISRDNAKNTVYLQMNSLKPVDTAVYYCAADIYDGGFDYWGQGTQVTVSS” the entry was “low polyreactivity”; with “QVQLVESGGGLVQAGGSLRLSCAASGFTFYRYAMGWYRQAPGKERELVASIRWGGGSTYYADSVKGRFTISRDNAKNTFYLEMNSLKPEDTAVYYCAAYFGYTVGRYNYWGQGTQVTVSS”, “high polyreactivity”.
“QVQLVESGGGLVQAGGSLRLSCAASGFTFYRYAMGWYRQAPGKERELVASISWRGGNTYYADSVKGRFTISRDNAKNTVYLQMNSLKPEDTAVYYCAAGRSRIPSLLDYWGQGTQVTVSS”: the “polyreactivity (PSR sort gate)” value is on record as “high polyreactivity”.
For “QVQLVESGGGLVQAGGSLRLSCAASGFTFYRYTMGWYIQAPGKERELVAAISARGVSTYYADSVKGRFTISRDIAKNTVYLQMNSLKPEDTAVYYCYVSRYDSWGQGTQVTVSS” the value was “high polyreactivity”; for “QVQLVESGGGLVQAGGSLRLSCAASGFTFYSNAMGWYRQAPGKERELVAAITGRGGRTYYADSVKGRFTISRDNAKNTVYLQMNSLKPEDTAVYYCAAVYHVSTWGGRYYFRQGYDYWGQGTQVTVSS”, “high polyreactivity”.
With “QVQLVESGGGLVQAGGSLRLSCAASGFTFYSNAMGWYRQAPGKERELVAAITSGGNTNYADSVKGRFTISRDNAKNTVYLQMNSLKPEDTAVYYCAAYPPSQRAEYDFWGQGTQVTVSS” the entry was “low polyreactivity”; with “QVQLVESGGGLVQAGGSLRLSCAASGFTFYSYAMGWYRQAPGKERELVAAISRSGTTTYYADSVKGRFTISRDNAKNTVYLQMNSLKPEDTAVYYCAARTTSSSLTPSLYYWGQGTQVTVSS”, “high polyreactivity”.
